Measurements taken from US20140363428A1 (Chugai, published 2014).
Substitutions are numbered along the chain they refer to.

B1: Fv-4-F947 (antibody, human IgG1, kappa)
heavy: QVQLQESGPGLVKPSETLSLTCAVSGHSISHDHAWSWVRQPPGEGLEWIGFISYSGITNYNPSLQGRVTISRDNSKNTLYLQMNSLRAEDTAVYYCARSLARTTAMDYWGEGTLVTVSSASTKGPSVFPLAPSSKSTSGGTAALGCLVKDYFPEPVTVSWNSGALTSGVHTFPAVLQSSGLYSLSSVVTVPSSSLGTQTYICNVNHKPSNTKVDKKVEPKSCDKTHTCPPCPAPELLGGPSVFLFPPKPKDVLYISRTPEVTCVVVDVSHEDPEVKFNWYVDGVEVHNAKTKPREEQYNSTYRVVSVLQPLHADWLNGKEYKCKVSNKALPAPIEKTISKAKGQPREPQVYTLPPSRDELTKNQVSLTCLVKGFYPSDIAVEWESNGQPENNYKTTPPVLDSDGSFFLYSKLTVDKSRWQQGNVFSCSVMHEALHYHVTQKSLSLSP
light: DIQMTQSPSSLSASVGDSVTITCQASTDISSHLNWYQQKPGKAPELLIYYGSHLLSGVPSRFSGSGSGTDFTFTISSLEAEDAATYYCGQGNRLPYTFGQGTKVEIERTVAAPSVFIFPPSDEQLKSGTASVVCLLNNFYPREAKVQWKVDNALQSGNSQESVTEQDSKDSTYSLSSTLTLSKADYEKHKVYACEVTHQGLSSPVTKSFNRGEC
B2: Fv-4-F1058 (antibody, human IgG1, kappa)
heavy: B1 heavy with V252T, Q309T, P310V, A313Q, Q388E
light: B1 light
B3: Fv-4-F1059 (antibody, human IgG1, kappa)
heavy: B1 heavy with V252T, Q309T, P310V, A313Q, Q388R
light: B1 light
B4: Fv-4-F1060 (antibody, human IgG1, kappa)
heavy: B1 heavy with V252T, Q309T, P310V, A313Q, Q388S
light: B1 light
B5: Fv-4-F1061 (antibody, human IgG1, kappa)
heavy: B1 heavy with V252T, Q309T, P310V, A313Q, P389E
light: B1 light
B6: Fv-4-F1062 (antibody, human IgG1, kappa)
heavy: B1 heavy with V252T, Q309T, P310V, A313Q, P389R
light: B1 light
B7: Fv-4-F1063 (antibody, human IgG1, kappa)
heavy: B1 heavy with V252T, Q309T, P310V, A313Q, P389S
light: B1 light
B8: Fv-4-F1064 (antibody, human IgG1, kappa)
heavy: B1 heavy with V252T, Q309T, P310V, A313Q, V424E
light: B1 light
B9: Fv-4-F1065 (antibody, human IgG1, kappa)
heavy: B1 heavy with V252T, Q309T, P310V, A313Q, V424R
light: B1 light
B10: Fv-4-F1066 (antibody, human IgG1, kappa)
heavy: B1 heavy with V252T, Q309T, P310V, A313Q, V424S
light: B1 light
B11: Fv-4-F1067 (antibody, human IgG1, kappa)
heavy: B1 heavy with V252T, Q309T, P310V, A313Q, S426E
light: B1 light
B12: Fv-4-F1068 (antibody, human IgG1, kappa)
heavy: B1 heavy with V252T, Q309T, P310V, A313Q, S426R
light: B1 light
B13: Fv-4-F1069 (antibody, human IgG1, kappa)
heavy: B1 heavy with V252T, Q309T, P310V, A313Q, Q440E
light: B1 light
B14: Fv-4-F1070 (antibody, human IgG1, kappa)
heavy: B1 heavy with V252T, Q309T, P310V, A313Q, Q440R
light: B1 light
B15: Fv-4-F1071 (antibody, human IgG1, kappa)
heavy: B1 heavy with V252T, Q309T, P310V, A313Q, Q440S
light: B1 light
B16: Fv-4-F1072 (antibody)
heavy: B1 heavy with V252T, Q309T, P310V, A313Q, S442E
light: B1 light
B17: Fv-4-F1073 (antibody)
heavy: B1 heavy with V252T, Q309T, P310V, A313Q, S442R
light: B1 light
B18: Fv-4-F1104 (antibody, human IgG1, kappa)
heavy: B1 heavy with V252T, Q309T, P310V, A313Q, V424E, S426R
light: B1 light
B19: Fv-4-F1105 (antibody, human IgG1, kappa)
heavy: B1 heavy with V252T, Q309T, P310V, A313Q, V424S, S426R
light: B1 light
B20: Fv-4-F1106 (antibody)
heavy: B1 heavy with V252T, Q309T, P310V, A313Q, Q440R, S442E
light: B1 light
B21: Fv-4-F1107 (antibody, human IgG1, kappa)
heavy: B1 heavy with V252T, Q309T, P310V, A313Q, V424D
light: B1 light
B22: Fv-4-F1108 (antibody, human IgG1, kappa)
heavy: B1 heavy with V252T, Q309T, P310V, A313Q, V424K
light: B1 light
B23: Fv-4-F1109 (antibody, human IgG1, kappa)
heavy: B1 heavy with V252T, Q309T, P310V, A313Q, V424T
light: B1 light
B24: Fv-4-F1110 (antibody, human IgG1, kappa)
heavy: B1 heavy with V252T, Q309T, P310V, A313Q, V424Q
light: B1 light
B25: Fv-4-F1111 (antibody, human IgG1, kappa)
heavy: B1 heavy with V252T, Q309T, P310V, A313Q, S426K
light: B1 light
B26: Fv-4-F1112 (antibody, human IgG1, kappa)
heavy: B1 heavy with V252T, Q309T, P310V, A313Q, Q440K
light: B1 light
B27: Fv-4-F1113 (antibody)
heavy: B1 heavy with V252T, Q309T, P310V, A313Q, S442D
light: B1 light
B28: Fv-4-F1114 (antibody)
heavy: B1 heavy with V252T, Q309T, P310V, A313Q, S442Q
light: B1 light
B29: Fv-4-F1119 (antibody, human IgG1, kappa)
heavy: B1 heavy with V424E
light: B1 light
B30: Fv-4-F1120 (antibody, human IgG1, kappa)
heavy: B1 heavy with S426R
light: B1 light
B31: Fv-4-F1121 (antibody, human IgG1, kappa)
heavy: B1 heavy with V424E, S426R
light: B1 light
B32: Fv-4-F1122 (antibody, human IgG1, kappa)
heavy: B1 heavy with Q440R
light: B1 light
B33: Fv-4-F1123 (antibody)
heavy: B1 heavy with S442E
light: B1 light
B34: Fv-4-F1124 (antibody)
heavy: B1 heavy with Q440R, S442E
light: B1 light
B35: Fv-4-F1230 (antibody)
heavy: B1 heavy with V252T, Q309T, P310V, A313Q, Q440R, S442D
light: B1 light
B36: Fv-4-F1231 (antibody)
heavy: B1 heavy with V252T, Q309T, P310V, A313Q, Q440K, S442E
light: B1 light
B37: Fv-4-F1232 (antibody)
heavy: B1 heavy with V252T, Q309T, P310V, A313Q, Q440K, S442D
light: B1 light
B38: IgG1-F1420 (antibody)
heavy: B1 heavy with L237R, S241K, V252T, Q309T, P310V, A313Q, H435D, Y436W, Q440K, S442E
light: not shown
B39: F1670 (antibody)
heavy: B1 heavy with L237R, S241K, V252T, Y254M, Q309T, P310V, A313Q, Q440R, S442E
light: B1 light
B40: F1675 (antibody)
heavy: B1 heavy with L237R, S241K, V252T, Y254M, Q309T, P310V, A313Q, H435D
light: B1 light
B41: F1681 (antibody)
heavy: B1 heavy with L237R, S241K, V252T, Y254M, Q309T, P310V, A313Q, V438T, Q440R, S442E
light: B1 light
B42: F1683 (antibody)
heavy: B1 heavy with L237R, S241K, V252T, Y254M, Q309T, P310V, A313Q, V438F, Q440R, S442E
light: B1 light
B43: F1712 (antibody)
heavy: B1 heavy with L237R, S241K, V252T, Y254M, Q309T, P310V, A313Q, Q440K, S442E
light: B1 light

target: T1, soluble human FcRn (human, UniProt P55899 24-297; P61769 21-119); experiment: SPR (Biacore), pH 7.0
T1 construct: Heterodimer of alpha chain and beta2-microglobulin; also called hFcRn
T1 sequence (P55899 24-297 limits assumed, chain 1 of 2): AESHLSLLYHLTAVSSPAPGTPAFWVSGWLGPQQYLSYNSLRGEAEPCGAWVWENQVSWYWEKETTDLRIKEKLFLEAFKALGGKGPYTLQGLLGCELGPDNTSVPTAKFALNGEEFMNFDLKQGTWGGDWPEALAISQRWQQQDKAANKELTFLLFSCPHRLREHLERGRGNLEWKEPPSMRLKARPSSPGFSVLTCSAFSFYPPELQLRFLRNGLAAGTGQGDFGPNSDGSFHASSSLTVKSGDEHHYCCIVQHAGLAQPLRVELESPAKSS
T1 sequence (P61769 21-119 limits assumed, chain 2 of 2): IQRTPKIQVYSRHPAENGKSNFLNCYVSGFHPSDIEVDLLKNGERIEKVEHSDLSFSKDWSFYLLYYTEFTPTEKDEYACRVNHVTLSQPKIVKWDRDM

In order of rising Kd:
1. B33  9.5 nM
2. B29  10 nM
3. B30  10 nM
4. B31  10 nM
5. B1  11.1 nM
6. B34  12 nM
7. B32  14 nM
8. B36  97.3 nM
9. B37  97.9 nM
10. B35  112 nM
11. B5  120 nM
12. B6  120 nM
13. B15  120 nM
14. B21  120 nM
15. B26  120 nM
16. B27  120 nM
17. B2  130 nM
18. B8  130 nM
19. B11  130 nM
20. B16  130 nM
21. B22  130 nM
22. B23  130 nM
23. B24  130 nM
24. B28  130 nM
25. B17  134 nM
26. B3  140 nM
27. B4  140 nM
28. B7  140 nM
29. B9  140 nM
30. B10  140 nM
31. B13  140 nM
32. B20  140 nM
33. B19  150 nM
34. B25  160 nM
35. B12  170 nM
36. B14  170 nM
37. B18  180 nM

target: T1, soluble human FcRn; experiment: SPR (Biacore), pH 7.0; remark: another data set of the same source

Work on B38 yielded a Kd of 130 nM.

target: T1, soluble human FcRn; experiment: SPR (Biacore), pH 6.0

In order of rising Kd:
1. B43  55 nM
2. B42  57 nM
3. B39  64 nM
4. B41  84 nM
5. B40  97 nM

target: T1, soluble human FcRn; experiment: SPR (Biacore), pH 7.0, 25 C;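 note: antibodies captured on a protein L-coated CM4 chip with human FcRn injected as analyte, KD obtained from ka and kd fitted to sensorgrams, in sodium phosphate buffer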
Protocol: An appropriate amount of protein L (ACTIGEN) was immobilized onto Sensor chip CM4 (GE Healthcare) by the amino coupling method, and the chip was allowed to capture an antibody of interest. Then, diluted FcRn solutions and running buffer (as a reference solution) were injected to allow human FcRn to interact with the antibody captured on the sensor chip. The running buffer used comprised 50 mmol/l sodium phosphate, 150 mmol/l NaCl, and 0.05% (w/v) Tween20 (pH 7.0). FcRn was diluted using each buffer. The chip was regenerated using 10 mmol/l glycine-HCl (pH 1.5). Assays were carried out exclusively at 25 degrees C. The association rate constant ka (1/Ms) and dissociation rate constant kd (1/s), both of which are kinetic parameters, were calculated based on the sensorgrams obtained in the assays, and KD (M) of each antibody for human FcRn was determined from these values. Each parameter was calculated using Biacore T100 Evaluation Software (GE Healthcare).

In the case of B38, the Kd is reported as 130 nM.
